± gives the standard error. Variants at the floor of the assay were thinned out.
B1: glmS ribozyme (parent)
chain: AUAAAAGCGCCAGAACUACAGAAAUGUAGUUGACGAGGAGGAGGUUUAUCGAAUUUUCGGCGGAUGCCUCCAAA

Tests used:
Conditions in all cases: with glucosamine-6-phosphate
glucosamine-6-phosphate [1] = variants of: B1; assay: self-cleavage kobs at 40 uM GlcN6P; higher = faster cleavage; RNA array
Method in brief: (§1)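 kcat and KM were obtained from weighted Michaelis–Menten fits across concentrations of kobs values. Those came from one- or two-exponential decay fits to per-tile medians normalised to baseline and to non-cleaving reference variants. The variants were barcoded ribozymes transcribed in situ by E. coli RNA polymerase on sequenced MiSeq chips and tracked through a hybridised Cy3 probe at 37 °C, with 40 μM to 10 mM glucosamine-6-phosphate in HEPES/KCl/Mg(OAc)2 buffer flowed in.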

glucosamine-6-phosphate [2] = variants of: B1; assay: self-cleavage kobs at 160 uM GlcN6P; higher = faster cleavage; RNA array
Method in brief: as §1

glucosamine-6-phosphate [3] = variants of: B1; assay: self-cleavage kobs at 640 uM GlcN6P; higher = faster cleavage; RNA array
Method in brief: as §1

glucosamine-6-phosphate [4] = variants of: B1; assay: self-cleavage kobs at 2500 uM GlcN6P; higher = faster cleavage; RNA array
Method in brief: as §1

glucosamine-6-phosphate [5] = variants of: B1; assay: self-cleavage kobs at 10000 uM GlcN6P; higher = faster cleavage; RNA array
Method in brief: as §1

Variant	self-cleavage kobs at 40 uM GlcN6P (glucosamine-6-phosphate [1])	self-cleavage kobs at 160 uM GlcN6P (glucosamine-6-phosphate [2])	self-cleavage kobs at 640 uM GlcN6P (glucosamine-6-phosphate [3])	self-cleavage kobs at 2500 uM GlcN6P (glucosamine-6-phosphate [4])	self-cleavage kobs at 10000 uM GlcN6P (glucosamine-6-phosphate [5])
U69A	0.000341 ± 7.7e-05 s⁻¹	0.000534 ± 0.00018 s⁻¹	0.000282 ± 3.1e-05 s⁻¹	0.00219 ± 0.0004 s⁻¹	0.000299 ± 4.6e-05 s⁻¹
C16U G60C C67A	< 1e-05 s⁻¹				
A36C A48G	< 1e-05 s⁻¹				< 1e-05 s⁻¹
C34U G40U C50U	< 1e-05 s⁻¹		< 1e-05 s⁻¹		< 1e-05 s⁻¹
U55G U65A C67A	6.53e-05 ± 1.8e-05 s⁻¹				9.95e-05 ± 3e-05 s⁻¹
A15C G63U	< 1e-05 s⁻¹		< 1e-05 s⁻¹		< 1e-05 s⁻¹
G9C G40A C50A	< 1e-05 s⁻¹				< 1e-05 s⁻¹
A36G A39U G43C C61G	< 1e-05 s⁻¹				
U30G A53G	0.000307 ± 5.3e-05 s⁻¹	0.00064 ± 0.00013 s⁻¹	0.00172 ± 0.0004 s⁻¹	0.00534 ± 0.00076 s⁻¹	0.0151 ± 0.0037 s⁻¹
G32C G66U	< 1e-05 s⁻¹	< 1e-05 s⁻¹			
A48U C50U	< 1e-05 s⁻¹	< 1e-05 s⁻¹	< 1e-05 s⁻¹	< 1e-05 s⁻¹	< 1e-05 s⁻¹
C10U G13A A39U G60U	< 1e-05 s⁻¹				
G7U G35U	< 1e-05 s⁻¹	< 1e-05 s⁻¹		< 1e-05 s⁻¹	< 1e-05 s⁻¹
A12G G40C G43C	< 1e-05 s⁻¹		< 1e-05 s⁻¹		< 1e-05 s⁻¹
C11A A33G G43U G44A U54C	< 1e-05 s⁻¹		< 1e-05 s⁻¹		< 1e-05 s⁻¹
A36C U69G	4.49e-05 ± 1.6e-05 s⁻¹	0.000114 ± 3.7e-05 s⁻¹	0.000391 ± 9.8e-05 s⁻¹	0.0001 ± 2e-05 s⁻¹	3.45e-05 ± 1e-05 s⁻¹
G7U A36U G40C	< 1e-05 s⁻¹			< 1e-05 s⁻¹	< 1e-05 s⁻¹
G13C U31C C71U	4.32e-05 ± 2e-05 s⁻¹				0.00114 ± 0.00023 s⁻¹
A6C A36G A52G	< 1e-05 s⁻¹			< 1e-05 s⁻¹	< 1e-05 s⁻¹
U45G G63U	< 1e-05 s⁻¹	< 1e-05 s⁻¹	< 1e-05 s⁻¹	< 1e-05 s⁻¹	< 1e-05 s⁻¹
G7C U31A	< 1e-05 s⁻¹		< 1e-05 s⁻¹	< 1e-05 s⁻¹	< 1e-05 s⁻¹
A6U G38A G40U G51C	< 1e-05 s⁻¹				

Variant	self-cleavage kobs at 40 uM GlcN6P (glucosamine-6-phosphate [1])	self-cleavage kobs at 160 uM GlcN6P (glucosamine-6-phosphate [2])	self-cleavage kobs at 640 uM GlcN6P (glucosamine-6-phosphate [3])	self-cleavage kobs at 2500 uM GlcN6P (glucosamine-6-phosphate [4])	self-cleavage kobs at 10000 uM GlcN6P (glucosamine-6-phosphate [5])
G7U A39C	< 1e-05 s⁻¹	< 1e-05 s⁻¹	< 1e-05 s⁻¹		< 1e-05 s⁻¹
A39C C68G	< 1e-05 s⁻¹				< 1e-05 s⁻¹
G40C A48C A52U	< 1e-05 s⁻¹		< 1e-05 s⁻¹	< 1e-05 s⁻¹	
C10U C58G	< 1e-05 s⁻¹	< 1e-05 s⁻¹		< 1e-05 s⁻¹	< 1e-05 s⁻¹
G37A C50U	< 1e-05 s⁻¹	< 1e-05 s⁻¹		< 1e-05 s⁻¹	
U30C A33G G66U C71G	< 1e-05 s⁻¹				< 1e-05 s⁻¹
C8A C11U A15U C50G U56A G63A	5.94e-05 ± 2e-05 s⁻¹			0.000104 ± 5.1e-05 s⁻¹	0.00011 ± 2.4e-05 s⁻¹
G41U U46G G59C	< 1e-05 s⁻¹		< 1e-05 s⁻¹	< 1e-05 s⁻¹	< 1e-05 s⁻¹
U31G U55A	0.000446 ± 7.1e-05 s⁻¹	0.00128 ± 0.00045 s⁻¹	0.00221 ± 0.00041 s⁻¹	0.00465 ± 0.0011 s⁻¹	0.0118 ± 0.0023 s⁻¹
A39C G59C	< 1e-05 s⁻¹	< 1e-05 s⁻¹	< 1e-05 s⁻¹	< 1e-05 s⁻¹	< 1e-05 s⁻¹
G32U G63U C71A	< 1e-05 s⁻¹		< 1e-05 s⁻¹		< 1e-05 s⁻¹
G37C U45G	< 1e-05 s⁻¹	< 1e-05 s⁻¹	< 1e-05 s⁻¹		
A33G U47A	< 1e-05 s⁻¹				< 1e-05 s⁻¹
G13C G40U	< 1e-05 s⁻¹	< 1e-05 s⁻¹	< 1e-05 s⁻¹		
A36G U49G	< 1e-05 s⁻¹		< 1e-05 s⁻¹		
A14G G59C	< 1e-05 s⁻¹		< 1e-05 s⁻¹		
C8G C10G C11U A33G U47C C70A C71A	< 1e-05 s⁻¹				
C34U G60U	< 1e-05 s⁻¹	< 1e-05 s⁻¹	< 1e-05 s⁻¹	< 1e-05 s⁻¹	< 1e-05 s⁻¹
G41U G66C C68U	< 1e-05 s⁻¹	< 1e-05 s⁻¹	< 1e-05 s⁻¹	< 1e-05 s⁻¹	
A33U G37C U45C A64C	< 1e-05 s⁻¹				< 1e-05 s⁻¹
A15U C71U	0.000165 ± 1.3e-05 s⁻¹	0.00037 ± 4.8e-05 s⁻¹	0.00103 ± 9e-05 s⁻¹	0.00528 ± 0.00075 s⁻¹	0.00793 ± 0.0013 s⁻¹
C34A C71A	< 1e-05 s⁻¹		< 1e-05 s⁻¹		< 1e-05 s⁻¹

Variant	self-cleavage kobs at 40 uM GlcN6P (glucosamine-6-phosphate [1])	self-cleavage kobs at 160 uM GlcN6P (glucosamine-6-phosphate [2])	self-cleavage kobs at 640 uM GlcN6P (glucosamine-6-phosphate [3])	self-cleavage kobs at 2500 uM GlcN6P (glucosamine-6-phosphate [4])	self-cleavage kobs at 10000 uM GlcN6P (glucosamine-6-phosphate [5])
G29U U45A C61A	< 1e-05 s⁻¹				
G43U C50U	< 1e-05 s⁻¹	< 1e-05 s⁻¹	< 1e-05 s⁻¹	< 1e-05 s⁻¹	< 1e-05 s⁻¹
G38U G40U	< 1e-05 s⁻¹				< 1e-05 s⁻¹
C11A U49G C67G	4.47e-05 ± 1.8e-05 s⁻¹				
G41A G43C U49A C50G C58A	< 1e-05 s⁻¹				
G29A G38A U46G C61U	< 1e-05 s⁻¹				< 1e-05 s⁻¹
C34U U57C C58U	< 1e-05 s⁻¹			< 1e-05 s⁻¹	< 1e-05 s⁻¹
A15U A33U C61G	< 1e-05 s⁻¹				
C34U U56A	< 1e-05 s⁻¹	< 1e-05 s⁻¹	< 1e-05 s⁻¹	< 1e-05 s⁻¹	
G29A U55C	0.000113 ± 2.5e-05 s⁻¹	9.66e-05 ± 2.7e-05 s⁻¹	0.00146 ± 0.00032 s⁻¹	0.00194 ± 0.00056 s⁻¹	0.00384 ± 0.00092 s⁻¹
C10A A15U	< 1e-05 s⁻¹		< 1e-05 s⁻¹		
A6G U65C	< 1e-05 s⁻¹	< 1e-05 s⁻¹	< 1e-05 s⁻¹	< 1e-05 s⁻¹	< 1e-05 s⁻¹
G35C U65C	< 1e-05 s⁻¹	< 1e-05 s⁻¹	< 1e-05 s⁻¹	< 1e-05 s⁻¹	< 1e-05 s⁻¹
A48G A64U	< 1e-05 s⁻¹	< 1e-05 s⁻¹	< 1e-05 s⁻¹		< 1e-05 s⁻¹
U46A C50G A53U C70G	0.000147 ± 6.3e-05 s⁻¹				0.000126 ± 3.8e-05 s⁻¹
C8U G9A C50G C67U	6.37e-05 ± 1.7e-05 s⁻¹			0.000169 ± 4.6e-05 s⁻¹	6.88e-05 ± 1.6e-05 s⁻¹
A12U A36G A52U C71G	< 1e-05 s⁻¹			< 1e-05 s⁻¹	< 1e-05 s⁻¹
A6U G29U G38A C58A	< 1e-05 s⁻¹				
C50G G62U	0.00036 ± 0.00014 s⁻¹	0.000115 ± 1.8e-05 s⁻¹	0.000122 ± 2.7e-05 s⁻¹		3.35e-05 ± 1e-05 s⁻¹
A33C A36G G40A	< 1e-05 s⁻¹		< 1e-05 s⁻¹	< 1e-05 s⁻¹	< 1e-05 s⁻¹
G32A G59C	< 1e-05 s⁻¹	< 1e-05 s⁻¹	< 1e-05 s⁻¹	< 1e-05 s⁻¹	
G7C G40A	< 1e-05 s⁻¹	< 1e-05 s⁻¹	< 1e-05 s⁻¹	< 1e-05 s⁻¹	< 1e-05 s⁻¹

Variant	self-cleavage kobs at 40 uM GlcN6P (glucosamine-6-phosphate [1])	self-cleavage kobs at 160 uM GlcN6P (glucosamine-6-phosphate [2])	self-cleavage kobs at 640 uM GlcN6P (glucosamine-6-phosphate [3])	self-cleavage kobs at 2500 uM GlcN6P (glucosamine-6-phosphate [4])	self-cleavage kobs at 10000 uM GlcN6P (glucosamine-6-phosphate [5])
C34A G38A	< 1e-05 s⁻¹	< 1e-05 s⁻¹		< 1e-05 s⁻¹	< 1e-05 s⁻¹
C16A A33U G38C	< 1e-05 s⁻¹			< 1e-05 s⁻¹	
A33U C34U	< 1e-05 s⁻¹	< 1e-05 s⁻¹	< 1e-05 s⁻¹		< 1e-05 s⁻¹
G32C C34A	< 1e-05 s⁻¹	< 1e-05 s⁻¹	< 1e-05 s⁻¹		< 1e-05 s⁻¹
C11G G40A U45G	< 1e-05 s⁻¹		< 1e-05 s⁻¹	< 1e-05 s⁻¹	< 1e-05 s⁻¹
U30A A48G	< 1e-05 s⁻¹	< 1e-05 s⁻¹	< 1e-05 s⁻¹		
A6U G9C	< 1e-05 s⁻¹		< 1e-05 s⁻¹		< 1e-05 s⁻¹
G7U U54G C70G C71U	7.3e-05 ± 2.8e-05 s⁻¹				5.65e-05 ± 2.5e-05 s⁻¹
C34U G66U	< 1e-05 s⁻¹	< 1e-05 s⁻¹			< 1e-05 s⁻¹
G13U G43C	< 1e-05 s⁻¹	< 1e-05 s⁻¹	< 1e-05 s⁻¹	< 1e-05 s⁻¹	< 1e-05 s⁻¹
C16U A42G C61G	< 1e-05 s⁻¹				
G41U U49A	< 1e-05 s⁻¹		< 1e-05 s⁻¹		< 1e-05 s⁻¹
C11G C34A A64C	< 1e-05 s⁻¹				< 1e-05 s⁻¹
A6G A15C A64C	< 1e-05 s⁻¹			< 1e-05 s⁻¹	
A33G G51A	< 1e-05 s⁻¹	< 1e-05 s⁻¹		< 1e-05 s⁻¹	< 1e-05 s⁻¹
A18G	0.00161 ± 0.00045 s⁻¹				0.0231 ± 0.01 s⁻¹
G29A G32U C34G C50A C61U	< 1e-05 s⁻¹				< 1e-05 s⁻¹
A39U U65C	8.42e-05 ± 1.7e-05 s⁻¹	0.000124 ± 2.7e-05 s⁻¹	0.00114 ± 0.00015 s⁻¹	0.00149 ± 0.00024 s⁻¹	
C8U A33C	< 1e-05 s⁻¹	< 1e-05 s⁻¹	< 1e-05 s⁻¹	< 1e-05 s⁻¹	< 1e-05 s⁻¹

— the supplement of paper PMC7125110
